This experiment deals with T1, hPIEZO1 C-terminal segment (residues 1592-2521) with N-terminal GFP (human, UniProt Q92508 1592-2521).
T1 construct: PIEZO1, human, residues 1592-2521, second cistron (after the IRES element) of the bicistronic vector hPIEZO1 NtCt; the methods say amplified from amino acid 1591 to the end, the results print 1592 to 2251 and 1591-2251; C-terminus amplified from HekP1; inserted at a SpeI site after the GFP of pIRES2-EGFP, so GFP precedes the segment; also called Ct-EGFP; C-terminal fragment; source: HEK293, …
T1 sequence (looked up): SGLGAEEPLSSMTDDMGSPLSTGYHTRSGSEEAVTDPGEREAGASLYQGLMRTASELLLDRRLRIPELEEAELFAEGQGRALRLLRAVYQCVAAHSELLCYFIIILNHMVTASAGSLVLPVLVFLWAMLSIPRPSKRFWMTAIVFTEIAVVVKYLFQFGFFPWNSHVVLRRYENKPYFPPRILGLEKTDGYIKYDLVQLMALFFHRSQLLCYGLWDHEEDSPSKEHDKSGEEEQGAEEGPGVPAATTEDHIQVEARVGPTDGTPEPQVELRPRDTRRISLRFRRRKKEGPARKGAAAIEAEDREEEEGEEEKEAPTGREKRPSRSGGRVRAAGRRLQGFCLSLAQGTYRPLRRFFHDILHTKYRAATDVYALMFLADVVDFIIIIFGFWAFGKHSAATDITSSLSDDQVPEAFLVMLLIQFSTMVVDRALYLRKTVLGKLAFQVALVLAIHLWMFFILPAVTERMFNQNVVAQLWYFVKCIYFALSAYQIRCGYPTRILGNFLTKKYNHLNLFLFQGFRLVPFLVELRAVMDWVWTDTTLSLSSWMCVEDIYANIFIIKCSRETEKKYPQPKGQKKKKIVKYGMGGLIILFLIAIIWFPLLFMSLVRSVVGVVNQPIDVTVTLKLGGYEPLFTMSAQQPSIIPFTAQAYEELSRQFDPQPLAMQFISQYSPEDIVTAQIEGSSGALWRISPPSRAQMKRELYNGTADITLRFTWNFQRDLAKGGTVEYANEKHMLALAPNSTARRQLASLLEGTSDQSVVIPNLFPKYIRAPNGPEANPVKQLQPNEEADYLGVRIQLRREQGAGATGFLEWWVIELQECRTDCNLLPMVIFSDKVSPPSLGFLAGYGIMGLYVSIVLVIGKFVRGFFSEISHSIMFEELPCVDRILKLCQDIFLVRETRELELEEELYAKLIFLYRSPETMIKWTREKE
The experiment in a line: FRET or BRET; living HEK293 cells transfected with bicistronic vectors; EGFP and mCherry fusions; FRET ratio = 680 nm emission excited at 480 nm over 680 nm emission excited at 560 nm. The note with it: partners not purified. A general note: BRET reads energy transfer from a luciferase to a nearby fluorophore.

B1: hPIEZO1 N-terminal segment (residues 1-1591) with mCherry linked at its end (domain or fragment, human, UniProt Q92508 1-1591, looked up)
chain: MEPHVLGAVLYWLLLPCALLAACLLRFSGLSLVYLLFLLLLPWFPGPTRCGLQGHTGRLLRALLGLSLLFLVAHLALQICLHIVPRLDQLLGPSCSRWETLSRHIGVTRLDLKDIPNAIRLVAPDLGILVVSSVCLGICGRLARNTRQSPHPRELDDDERDVDASPTAGLQEAATLAPTRRSRLAARFRVTAHWLLVAAGRVLAVTLLALAGIAHPSALSSVYLLLFLALCTWWACHFPISTRGFSRLCVAVGCFGAGHLICLYCYQMPLAQALLPPAGIWARVLGLKDFVGPTNCSSPHALVLNTGLDWPVYASPGVLLLLCYATASLRKLRAYRPSGQRKEAAKGYEARELELAELDQWPQERESDQHVVPTAPDTEADNCIVHELTGQSSVLRRPVRPKRAEPREASPLHSLGHLIMDQSYVCALIAMMVWSITYHSWLTFVLLLWACLIWTVRSRHQLAMLCSPCILLYGMTLCCLRYVWAMDLRPELPTTLGPVSLRQLGLEHTRYPCLDLGAMLLYTLTFWLLLRQFVKEKLLKWAESPAALTEVTVADTEPTRTQTLLQSLGELVKGVYAKYWIYVCAGMFIVVSFAGRLVVYKIVYMFLFLLCLTLFQVYYSLWRKLLKAFWWLVVAYTMLVLIAVYTFQFQDFPAYWRNLTGFTDEQLGDLGLEQFSVSELFSSILVPGFFLLACILQLHYFHRPFMQLTDMEHVSLPGTRLPRWAHRQDAVSGTPLLREEQQEHQQQQQEEEEEEEDSRDEGLGVATPHQATQVPEGAAKWGLVAERLLELAAGFSDVLSRVQVFLRRLLELHVFKLVALYTVWVALKEVSVMNLLLVVLWAFALPYPRFRPMASCLSTVWTCVIIVCKMLYQLKVVNPQEYSSNCTEPFPNSTNLLPTEISQSLLYRGPVDPANWFGVRKGFPNLGYIQNHLQVLLLLVFEAIVYRRQEHYRRQHQLAPLPAQAVFASGTRQQLDQDLLGCLKYFINFFFYKFGLEICFLMAVNVIGQRMNFLVTLHGCWLVAILTRRHRQAIARLWPNYCLFLALFLLYQYLLCLGMPPALCIDYPWRWSRAVPMNSALIKWLYLPDFFRAPNSTNLISDFLLLLCASQQWQVFSAERTEEWQRMAGVNTDRLEPLRGEPNPVPNFIHCRSYLDMLKVAVFRYLFWLVLVVVFVTGATRISIFGLGYLLACFYLLLFGTALLQRDTRARLVLWDCLILYNVTVIISKNMLSLLACVFVEQMQTGFCWVIQLFSLVCTVKGYYDPKEMMDRDQDCLLPVEEAGIIWDSVCFFFLLLQRRVFLSHYYLHVRADLQATALLASRGFALYNAANLKSIDFHRRIEEKSLAQLKRQMERIRAKQEKHRQGRVDRSRPQDTLGPKDPGLEPGPDSPGGSSPPRRQWWRPWLDHATVIHSGDYFLFESDSEEEEEAVPEDPRPSAQSAFQLAYQAWVTNAQAVLRRRQQEQEQARQEQAGQLPTGGGPSQEVEPAEGPEEAAAGRSHVVQRVLSTAQFLWMLGQALVDELTRWLQEFTRHHGTMSDVLRAERYLLTQELLQGGEVHRGVLDQLYTSQAEATLPGPTEAPNAPSTVS
notes: PIEZO1, human, residues 1-1591, first cistron of the bicistronic vector hPIEZO1 NtCt; also called Nt-mCherry; N-terminal fragment; source: HEK293, transfected with the bicistronic plasmid hPIEZO1 NtCt, in living cells; not shown: mCherry, C-terminal, kept
In the case of B1, the FRET ratio is 3.4.
